From the Human Domainome abundance scans (Beltran et al. 2025)

B1: Proto-oncogene vav, residues 782 to 842; numbered along this chain, P15498 (parent)
chain: KYFGTAKARYDFCARDRSELSLKEGDIIKILNKKGQQGWWRGEIYGRVGWFPANYVEEDYS

Variants of: B1
Assay: abundance fitness (aPCA) (normalised: wild type 0, dead -1); higher = more abundant; growth selection in yeast, the domain comes from the species named
Settings: Homo sapiens

Abundance fitness, by site and new letter:
E57: D -0.172, A -0.052, M -0.105, T 0.025, Q -0.109, R -0.123, C -0.284, L -0.194, H -0.424, P -1.02, N -0.185, I -0.073, W -0.478, V -0.001, K -0.313, F -0.175, S -0.059
N54: T -0.112, S -0.054, H -0.185, R 0.055, A 0.051, G -0.065, F -0.406, C -0.017, P -0.29, W -0.091, D 0.064, E 0.05, K -0.092, L -0.219, M -0.214, V -0.098, Q -0.201, I -0.376
V48: T 0.071, C -0.194, A -0.156, Y -0.177, E -0.07, K -0.071, S -0.062, P -0.733, W -0.491, M -0.312, H -0.405, D -0.499, L -0.347
G46: N -0.15, P -0.387, H -0.672, K -0.516, D -0.19, C -0.784, A -0.731, V -0.748, S -0.343, F -0.942, T -0.542, Y -1.01, M -0.896, Q -0.291, I -0.766, R -0.671, L -0.67, W -0.853, E -0.311
Q37: W -0.189, V -0.024, T -0.135, M -0.105, P 0.039, Y 0.048, L -0.106, N -0.086, S 0.02, R -0.048
E43: D -0.559, Y -0.682, F -0.825, R -0.31, A -0.197, T -0.367, G -0.702, S -0.126, M -0.389, K -0.155, N -0.36, W -0.782, Q -0.019, V -0.411, H -0.993, C -0.343, L -0.525
R41: I -0.463, A -0.364, P -0.588, K 0.008, C -0.002, S -0.359, T -0.633, M 0.024, L 0.031, Q 0.129, G -0.691, E 0.018, F 0.081, H -0.113, N -0.375, W -0.123
G38: V -0.51, H -0.418, T -0.69, A -0.619, L -0.55, C -0.725, N -0.309, P -0.944, E -0.438, R -0.539, Q -0.186, I -0.911, W -0.928, K -0.248, M -0.795, D -0.265, F -0.82
W39: I -0.408, R -0.241, G -0.978, N -0.674, M -0.028, A -0.614, F -0.354, L -0.268, Q -0.317, H -0.513, T -0.385, E -0.795, P -0.807, S -0.599
P52: A -0.909, Y -1.01, T -0.778, N -0.761, M -0.38, S -0.95, Q -0.528, K -0.498, C -1.02, L -0.89, R -0.89, V -0.787, W -0.943, F -0.957, D -0.929
Y55: F -0.258, K -0.388, C 0.093, L 0.058, H -0.226, V -0.074, M -0.012, P -0.925, T -0.206, W -0.198, E -0.763, A 0.053, S -0.206, G -0.396, D -0.736, R -0.135, Q -0.457
W40: A -1.13, K -0.362, Y -0.182, V -0.648, F -0.303, G -0.707, Q -0.876, P -0.876, C -0.833, D -0.747, I -0.385, E -0.924, M -0.428, R -0.948, S -0.785, L -0.306
W50: Y -0.17, A -0.649, R -0.596, G -0.699, K -0.559, M -0.387, D -0.493, S -0.584, T -0.645, L -0.341, Q -0.516, F -0.678, I -0.739, V -0.452, E -0.603, N -0.329
Y45: E 0.103, K 0.115, P -0.211, A 0.106, S 0.164, W -0.101, D 0.147, Q 0.169, T -0.021, H 0.135, G 0.125, N 0.081, V -0.074, L 0.036, M 0.1, F 0.085
F51: L -0.813, C -0.859, E -0.913, V -0.684, G -0.838, T -0.799, M -0.905, D -0.951, S -0.857, N -0.489, I -0.691, R -0.78, Q -0.759, A -0.984, W -0.988, P -0.733
R47: K -0.051, L -0.493, S -0.297, W -0.841, G -0.628, V -0.367, Y -0.503, F -0.788, A -0.268, M -0.393, P -0.86, T -0.313, D -0.3, H -0.226, Q -0.065, N -0.276
I44: G -0.619, Q -0.484, C 0.042, V 0.044, Y -0.425, W -0.556, A 0.062, R -0.145, N 0.085, D -0.486, L 0.089, M -0.292, H -0.025, F -0.257, T -0.027, P -0.556, K -0.239
A53: T -0.227, K -0.243, W -0.451, D -0.641, Q -0.243, N -0.444, F -0.472, M -0.178, I -0.314, G -0.4, S -0.082, Y -0.341, L -0.505, P -0.226, H -0.011, E -0.208, V -0.301, R -0.151, C -0.078
G42: A -0.523, R -0.398, Y -0.618, P -0.916, T -0.825, I -0.832, Q -0.963, V -0.837, E -0.809, D -0.385, F -1.02, L -0.788, M -0.748, S -0.787
G49: K -0.92, R -0.998, N -0.956, C -0.83, A -0.433, D -0.956, P -0.776, F -0.87, V -0.902, L -1.01, S -0.618, Q -0.838, M -0.907, T -0.506
V56: P -0.73, F -0.794, R -1.03, G -0.545, N -0.807, I -0.554, L -0.616, A -0.191, E -0.562, S -0.919, Q -1, H -0.753, W -0.543, C -0.452, M -1.02, K -0.599, Y -0.325
